Source: patent US20180236024A1 (STC UNM, published 2018)

What was measured:
radiolabeled Myc-TRIM20 = molecular target: T1, radiolabeled Myc-TRIM20 (human, UniProt O15553 1-781, [35S] L-methionine label); assay: GST pull-down of radiolabeled Myc-TRIM20
T1 construct: In vitro translated for GST pull-down; the peptide array of TRIM20 peptides is also written under this molecule; not shown: Myc tag
T1 sequence: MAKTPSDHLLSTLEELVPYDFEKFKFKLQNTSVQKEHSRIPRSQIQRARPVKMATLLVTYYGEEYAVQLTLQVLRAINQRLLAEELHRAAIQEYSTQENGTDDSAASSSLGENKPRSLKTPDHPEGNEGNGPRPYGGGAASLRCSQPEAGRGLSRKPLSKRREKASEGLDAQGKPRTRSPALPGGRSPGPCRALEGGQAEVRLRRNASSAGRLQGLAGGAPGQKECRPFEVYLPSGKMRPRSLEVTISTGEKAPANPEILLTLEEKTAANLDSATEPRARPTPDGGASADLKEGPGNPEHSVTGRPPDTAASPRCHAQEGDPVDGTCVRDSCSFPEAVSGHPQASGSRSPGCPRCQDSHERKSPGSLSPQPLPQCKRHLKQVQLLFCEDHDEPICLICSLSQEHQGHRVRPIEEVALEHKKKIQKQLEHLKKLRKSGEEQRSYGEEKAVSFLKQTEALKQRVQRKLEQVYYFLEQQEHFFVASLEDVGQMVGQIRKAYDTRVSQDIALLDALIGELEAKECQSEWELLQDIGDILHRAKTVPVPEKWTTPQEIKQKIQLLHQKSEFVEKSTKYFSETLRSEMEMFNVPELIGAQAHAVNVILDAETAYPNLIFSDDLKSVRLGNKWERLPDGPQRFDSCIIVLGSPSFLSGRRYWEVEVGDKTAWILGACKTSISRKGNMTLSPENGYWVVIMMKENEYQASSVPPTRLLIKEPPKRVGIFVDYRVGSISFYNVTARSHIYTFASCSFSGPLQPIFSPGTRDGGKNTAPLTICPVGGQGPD

NLRP3 = molecular target: T2, NLRP3 (UniProt Q96P20 1-1036); assay: co-IP of GFP-TRIM20 variants with NLRP3, HEK293 cells
T2 construct: also called Flag-NLRP3; endogenous NLRP3
T2 sequence (Q96P20 whole entry): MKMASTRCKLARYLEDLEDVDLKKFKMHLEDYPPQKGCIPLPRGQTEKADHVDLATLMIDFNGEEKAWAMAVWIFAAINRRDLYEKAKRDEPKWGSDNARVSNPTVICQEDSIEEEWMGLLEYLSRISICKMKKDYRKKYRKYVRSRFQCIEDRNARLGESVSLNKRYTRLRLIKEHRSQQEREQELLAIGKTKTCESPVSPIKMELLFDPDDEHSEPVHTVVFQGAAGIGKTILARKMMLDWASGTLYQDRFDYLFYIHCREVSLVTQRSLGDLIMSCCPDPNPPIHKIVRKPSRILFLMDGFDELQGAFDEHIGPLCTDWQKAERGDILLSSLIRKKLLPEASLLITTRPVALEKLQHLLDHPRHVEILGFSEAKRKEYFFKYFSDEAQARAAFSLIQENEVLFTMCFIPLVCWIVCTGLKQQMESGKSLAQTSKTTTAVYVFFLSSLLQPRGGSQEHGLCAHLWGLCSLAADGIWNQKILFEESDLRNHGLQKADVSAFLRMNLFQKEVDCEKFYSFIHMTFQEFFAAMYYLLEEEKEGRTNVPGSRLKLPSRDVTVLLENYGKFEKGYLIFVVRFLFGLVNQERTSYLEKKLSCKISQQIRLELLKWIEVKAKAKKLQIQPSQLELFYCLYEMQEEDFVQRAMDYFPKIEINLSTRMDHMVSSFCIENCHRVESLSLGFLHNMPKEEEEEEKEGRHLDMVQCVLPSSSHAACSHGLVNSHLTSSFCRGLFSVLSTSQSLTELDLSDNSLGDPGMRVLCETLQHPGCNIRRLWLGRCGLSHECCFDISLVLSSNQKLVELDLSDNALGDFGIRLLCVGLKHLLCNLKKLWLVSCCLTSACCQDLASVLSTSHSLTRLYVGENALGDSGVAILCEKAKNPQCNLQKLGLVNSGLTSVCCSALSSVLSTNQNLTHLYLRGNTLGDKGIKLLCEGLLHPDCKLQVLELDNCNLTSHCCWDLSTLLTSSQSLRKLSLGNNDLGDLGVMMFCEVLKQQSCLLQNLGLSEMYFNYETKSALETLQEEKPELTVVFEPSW

B1: GST-GABARAP (other)
chain: MKFVYKEEHPFEKRRSEGEKIRKKYPDRVPVIVEKAPKARIGDLDKKKYLVPSDLTVGQFYFLIRKRIHLRAEDALFFFVNNVIPPTSATMGQLYQEHHEEDFFLYIAYSDESVYGL
notes: GST fusion made in E. coli; not shown: GST tag
binding result (radiolabeled Myc-TRIM20): binds

B2: GFP-TRIM20 (full-length human TRIM20) (other)
chain: T1 sequence
notes: also called T20; wild type TRIM20; not shown: GFP tag
binding result (NLRP3): binds
